Results taken from patent US10294487B2, “Methods and compositions involving ALS variants with native substrate preference” (E I DU PONT DE NEMOURS AND COMPANY, priority 2012, dated 2019).

Experiments:
[1] = system: soybean embryogenic suspension tissue; assay: Chlorsulfuron selectable marker activity in soybean transformation; format: cell-based; details: chlorsulfuron selection 50 then 100 ppb; SAMS (low) or UBQ10 (high) expression promoter as in label
Text: Soybean plants expressing ALS variant transgenes were produced using the method of particle gun bombardment (Klein et al. (1987) Nature 327:70-73, U.S. Pat. No. 4,945,050) using a DuPont BIOLISTIC® PDS1000/He instrument. The vectors used to test modified ALS genes as selectable markers in soybean transformation were composed of the S-adenosylmethionine synthase (SAMS) promoter (U.S. Pat. No. 7,741,537) from soybean, or the polyubiquitin 10 (AT-UBQ10) promoter (DuPont) from Arabidopsis, driving the modified ALS coding sequence followed by the native soybean ALS terminator region. The selection agent used during the transformation process was chlorsulfuron. Bombardments were carried out with linear DNA fragments purified away from any bacterial vector DNA. Bombarded soybean embryogenic suspension tissue was cultured for one week in the absence of chlorsulfuron, and then placed in liquid selection medium for 6 weeks. Selection in liquid cultures was at 50 parts per billion (ppb) chlorsulfuron for three weeks, then elevated to 100 ppb. Putative transgenic suspension tissue was sampled for PCR analysis to confirm the presence of the modified ALS gene. Putative transgenic suspension culture tissue was maintained in selection medium for 3 weeks to obtain enough tissue for plant regeneration. […]

G. max ALS1 protein [2] = assay: Colorimetric ALS kinetic assay (Km, kcat) with pyruvate as substrate; format: biochemical, Glycine max
Description: A survey of known ALS (AcetoLactate Synthase) gene variants (Table 2) was performed, and a number of ALS variants were selected for kinetic evaluation based on breadth and strength of insensitivity to ALS-inhibitor herbicides as well as kinetic activity parameters including the ratio of substrate preferences. The selected ALS gene variants (Table 3) were generated by PCR mediated site-directed mutagenesis. Finnzymes PHUSION® DNA polymerase (Cat. No. F-530S) was used for the PCR reactions, following the instructions for recommended temperatures and cycles in the PHUSION® protocol. Some mutagenesis reactions were assisted by the use of IN-FUSION® enzyme (Clontech Cat. No. 639620) to circularize a linear plasmid with the mutation located within the 15 nucleotide overlapping ends, via recombination following the manufacturer's protocol for primer design and reaction conditions. The ALS genes, beginning with encoded amino acids SISK, (S48 to K51 in the G. max ALS1 protein (SEQ ID NO:1) corresponding to the mature protein N-terminus of the chloroplast localized enzyme), were cloned into the PMAL® E. coli expression vector (New England Biolabs) to express ALS as a fusion protein with a Maltose-Binding Protein (MBP) at the N-terminus with a thrombin site for cleavage and a His-6 tag for affinity purification. All in vitro protein characterization described in the examples was carried out with the isolated proteins after cleavage from the His-MBP fusion partner.
Km and Kcat determinations for recombinant ALS variants (with respect to pyruvate as the substrate) were performed using a colorimetric assay. ALS assays were carried out in 96-well microplates with 150 ul reaction containing 25 mM potassium phosphate, 0.2 mg/ml BSA, 15 mM MgCl2, 0.7 mM TPP, 28 uM FAD and 0-100 mM sodium pyruvate. Reactions were initiated by the addition of ALS enzyme to a final amount of 0.8 ug/well. Parameters for Km and Vmax were determined by fitting the velocity versus substrate concentration data to a rectangular hyperbola using GraphPad Prism software. Kcat values were determined from Vmax based on protein concentration in the reactions.

G. max ALS1 protein [3] = assay: Substrate specificity ratio (Rf), pyruvate versus 2-ketobutyrate, LC-MS of reduced products; format: biochemical, Glycine max; details: ratio of [pyruvate] to [2-ketobutyrate] giving equal rates of acetolactate and acetohydroxybutyrate formation, 25 mM pyruvate
Text: The “substrate specificity ratio”, or “Rf”, characterizes the specificity of the ALS enzyme for AHB formation relative to AL formation (Gollop et al. (1989) Biochemistry 28:6310-6317). Rf is the ratio of [pyruvate] to [2-ketobutyrate] that results in equal rates of formation of acetolactate and acetohydroxybutyrate. Rf is a constant at all substrate concentrations. The substrate specificity ratio is ˜114 for the wild type Glycine max ALS1 enzyme (SEQ ID NO:1) compared to ˜3 for the highly resistant allele (HRA) double mutant variant (SEQ ID NO: 10) of the Glycine max ALS1. The soybean HRA sequence is disclosed, for example, in WO2007/024782, herein incorporated by reference.
Substrate preference was determined using the assay described in Example 3; however, the assay was conducted using a constant concentration of pyruvate (25 mM) and varying concentrations of the second substrate, 2-ketobutyrate. Each reaction involving a specific ratio of pyruvate to 2-ketobutyrate, after a set period of time, was quenched by addition of sodium borohydride (7-fold excess) to form the reduced adducts of the products of the two substrates namely; reduced acetolactate for the reaction with pyruvate and reduced aceto hydroxybutyrate for the 2-ketobutyrate reaction. The relative amounts of the two reduced products was determined by first, chromatographic separation using a 4.6×250 mm dC18 column (Atlantis) equilibrated with a 0.1% formic acid solution and subsequent elution using a methanol gradient at 0.7 ml/min, followed by detection using a Thermo FINNIGAN® LTQ® Mass Spectrometer (MS). The products of the two reactions were quantified by integration of the MS signals. The % of the amount of each of the reduced products was then plotted versus the concentration of 2-ketobutyrate. As the 2-ketobutyrate amount increased there was a consequent increase in reduced acetohydroxybutyrate (AHB) and decrease in reduced acetolactate (AL). […] The substrate specificity ratio was ˜114 for the wild type enzyme compared to 3 for the highly resistant allele (HRA) double mutant ALS variant (SEQ ID NO: 10).

B1: GM-ALS1: Glycine Max ALS1 protein, wild type (protein)
chain: MAATASRTTRFSSSSSHPTFPKRITRSTLPLSHQTLTKPNHALKIKCSISKPPTAAPFTKEAPTTEPFVSRFASGEPRKGADILVEALERQGVTTVFAYPGGASMEIHQALTRSAAIRNVLPRHEQGGVFAAEGYARSSGLPGVCIATSGPGATNLVSGLADALMDSVPVVAITGQVPRRMIGTDAFQETPIVEVSRSITKHNYLILDVDDIPRVVAEAFFVATSGRPGPVLIDIPKDVQQQLAVPNWDEPVNLPGYLARLPRPPAEAQLEHIVRLIMEAQKPVLYVGGGSLNSSAELRRFVELTGIPVASTLMGLGTFPIGDEYSLQMLGMHGTVYANYAVDNSDLLLAFGVRFDDRVTGKLEAFASRAKIVHIDIDSAEIGKNKQAHVSVCADLKLALKGINMILEEKGVEGKFDLGGWREEINVQKHKFPLGYKTFQDAISPQHAIEVLDELTNGDAIVSTGVGQHQMWAAQFYKYKRPRQWLTSGGLGAMGFGLPAAIGAAVANPGAVVVDIDGDGSFIMNVQELATIRVENLPVKILLLNNQHLGMVVQWEDRFYKSNRAHTYLGDPSSESEIFPNMLKFADACGIPAARVTKKEELRAAIQRMLDTPGPYLLDVIVPHQEHVLPMIPSNGSFKDVITEGDGRTRY
modifications: GLYCINE MAX
notes: Glycine Max ALS1 protein, wild type
[1]
  Selectable Marker Activity: not able to act as a selection marker
G. max ALS1 protein [2]
  Km: 3000 µM
  kcat: 0.933 s⁻¹
G. max ALS1 protein [3]
  Substrate specificity ratio (Rf): 114.0
G. max ALS1 protein [3]; listed as Glycine max ALS1
  Substrate specificity ratio (Rf): ~114
G. max ALS1 protein [3]; listed as wild type enzyme
  Substrate specificity ratio (Rf): ~114
